Assay results reported in US10640547B2, “Immunotherapy against melanoma and other cancers” (IMMATICS BIOTECHNOLOGIES GMBH, priority 2016, dated 2020).

Target: HLA-A*02:01 (Homo sapiens, UniProt P04439, D140Y/D185E/D98H/E176V/E277Q/G131W/G231S/I119V/I121R/I166T/I218V/L300P/L318F/N151K/N90K/P208A/P217A/Q86G/Q94H/R138H/R169H/T345S)
Experiment: MHC binding assay (UV-ligand exchange, β2m ELISA)
Details: MHC class I binding score; binding to HLA-A*02:01 ranged by peptide exchange yield (UV-ligand exchange, β2m ELISA)
Description: Candidate peptides for T cell based therapies according to the present invention were further tested for their MHC binding capacity (affinity). The individual peptide-MHC complexes were produced by UV-ligand exchange, where a UV-sensitive peptide is cleaved upon UV-irradiation, and exchanged with the peptide of interest as analyzed. Only peptide candidates that can effectively bind and stabilize the peptide-receptive MHC molecules prevent dissociation of the MHC complexes. To determine the yield of the exchange reaction, an ELISA was performed based on the detection of the light chain (β2m) of stabilized MHC complexes. The assay was performed as generally described in Rodenko et al. (Rodenko et al., 2006).
96 well MAXISorp plates (NUNC) were coated over night with 2 ug/ml streptavidin in PBS at room temperature, washed 4× and blocked for 1 h at 37° C. in 2% BSA containing blocking buffer. Refolded HLA-A*02:01/MLA-001 monomers served as standards, covering the range of 15-500 ng/ml. Peptide-MHC monomers of the UV-exchange reaction were diluted 100 fold in blocking buffer. Samples were incubated for 1 h at 37° C., washed four times, incubated with 2 ug/ml HRP conjugated anti-β2m for 1 h at 37° C., washed again and detected with TMB solution that is stopped with […]. Absorption was measured at 450 nm. Candidate peptides that show a high exchange yield (preferably higher than 50%, most preferred higher than 75%) are generally preferred for a generation and production of antibodies or fragments thereof, and/or T cell receptors or fragments thereof, as they show sufficient avidity to the MHC molecules and prevent dissociation of the MHC complexes.

170 (KLKEAVEAI; listed as Homo sapiens) [compound 170]
Peptide exchange: ++ (>20% = ++)

171 (KVSGVILSV; listed as Homo sapiens) [compound 171]
Peptide exchange: ++++ (>75% = ++++)

172 (FLPAGIVAV; listed as Homo sapiens) [compound 172]
Peptide exchange: ++++ (>75% = ++++)

173 (ALDDIIYRA; listed as Homo sapiens) [compound 173]
Peptide exchange: +++ (>50 = +++)

174 (TLLEGLTEL; listed as Homo sapiens) [compound 174]
Peptide exchange: +++ (>50 = +++)

175 (VLDSVDVRL; listed as Homo sapiens) [compound 175]
Peptide exchange: ++++ (>75% = ++++)

176 (TLYEQEIEV; listed as Homo sapiens) [compound 176]
Peptide exchange: ++++ (>75% = ++++)

177 (ILWDTLLRL; listed as Homo sapiens) [compound 177]
Peptide exchange: ++++ (>75% = ++++)

178 (FAYDGKDYIA; listed as Homo sapiens) [compound 178]
Peptide exchange: ++++ (>75% = ++++)

179 (ALDDTVLQV; listed as Homo sapiens) [compound 179]
Peptide exchange: +++ (>50 = +++)

180 (KLAEALYIA; listed as Homo sapiens) [compound 180]
Peptide exchange: +++ (>50 = +++)

181 (GLIDLEANYL; listed as Homo sapiens) [compound 181]
Peptide exchange: ++++ (>75% = ++++)

182 (SVALVIHNV; listed as Homo sapiens) [compound 182]
Peptide exchange: ++++ (>75% = ++++)

183 (FLDSLIYGA; listed as Homo sapiens) [compound 183]
Peptide exchange: ++++ (>75% = ++++)

184 (VLFSSPPVILL; listed as Homo sapiens) [compound 184]
Peptide exchange: ++++ (>75% = ++++)

185 (ILADATAKM; listed as Homo sapiens) [compound 185]
Peptide exchange: ++++ (>75% = ++++)

186 (FLDHEMVFL; listed as Homo sapiens) [compound 186]
Peptide exchange: ++++ (>75% = ++++)

187 (SLPRPTPQA; listed as Homo sapiens) [compound 187]
Peptide exchange: +++ (>50 = +++)

188 (VVVDPIQSV; listed as Homo sapiens) [compound 188]
Peptide exchange: +++ (>50 = +++)

193 (ALDEPTTNL; listed as Homo sapiens) [compound 193]
Peptide exchange: +++ (>50 = +++)

194 (TLDDIMAAV; listed as Homo sapiens) [compound 194]
Peptide exchange: +++ (>50 = +++)

195 (IAAGIFNDL; listed as Homo sapiens) [compound 195]
Peptide exchange: + (>10% = +)

196 (ALEPIDITV; listed as Homo sapiens) [compound 196]
Peptide exchange: +++ (>50 = +++)

197 (ALDSGFNSV; listed as Homo sapiens) [compound 197]
Peptide exchange: ++++ (>75% = ++++)

198 (EVVDKINQV; listed as Homo sapiens) [compound 198]
Peptide exchange: + (>10% = +)

199 (AIHTAILTL; listed as Homo sapiens) [compound 199]
Peptide exchange: ++ (>20% = ++)

200 (LLEEINHFL; listed as Homo sapiens) [compound 200]
Peptide exchange: +++ (>50 = +++)

201 (SLIDRTIKM; listed as Homo sapiens) [compound 201]
Peptide exchange: +++ (>50 = +++)

202 (RVAFKINSV; listed as Homo sapiens) [compound 202]
Peptide exchange: +++ (>50 = +++)

203 (FLNEDISKL; listed as Homo sapiens) [compound 203]
Peptide exchange: +++ (>50 = +++)

204 (RMDEEFTKI; listed as Homo sapiens) [compound 204]
Peptide exchange: +++ (>50 = +++)

205 (SLKSKVLSV; listed as Homo sapiens) [compound 205]
Peptide exchange: ++++ (>75% = ++++)

206 (LLYEDIPDKV; listed as Homo sapiens) [compound 206]
Peptide exchange: +++ (>50 = +++)

207 (VQIGDIVTV; listed as Homo sapiens) [compound 207]
Peptide exchange: ++++ (>75% = ++++)

208 (YSDDIPHAL; listed as Homo sapiens) [compound 208]
Peptide exchange: ++ (>20% = ++)

209 (SILDGLIHL; listed as Homo sapiens) [compound 209]
Peptide exchange: +++ (>50 = +++)

210 (LLPELRDWGV; listed as Homo sapiens) [compound 210]
Peptide exchange: +++ (>50 = +++)

212 (LLKDSIVQL; listed as Homo sapiens) [compound 212]
Peptide exchange: +++ (>50 = +++)

214 (VLMEMSYRL; listed as Homo sapiens) [compound 214]
Peptide exchange: +++ (>50 = +++)

215 (EVISKLYAV; listed as Homo sapiens) [compound 215]
Peptide exchange: +++ (>50 = +++)

216 (TLLHFLAEL; listed as Homo sapiens) [compound 216]
Peptide exchange: ++++ (>75% = ++++)

217 (NMMSGISSV; listed as Homo sapiens) [compound 217]
Peptide exchange: +++ (>50 = +++)

218 (STLHLVLRL; listed as Homo sapiens) [compound 218]
Peptide exchange: +++ (>50 = +++)

219 (FLDSEVSEL; listed as Homo sapiens) [compound 219]
Peptide exchange: +++ (>50 = +++)

220 (SAAEPTPAV; listed as Homo sapiens) [compound 220]
Peptide exchange: +++ (>50 = +++)

221 (SLLPTEQPRL; listed as Homo sapiens) [compound 221]
Peptide exchange: +++ (>50 = +++)

222 (LLSEIEEHL; listed as Homo sapiens) [compound 222]
Peptide exchange: ++++ (>75% = ++++)

223 (FLETNVPLL; listed as Homo sapiens) [compound 223]
Peptide exchange: +++ (>50 = +++)

224 (ILDEPTNHL; listed as Homo sapiens) [compound 224]
Peptide exchange: ++ (>20% = ++)

225 (VLFGAVITGA; listed as Homo sapiens) [compound 225]
Peptide exchange: ++++ (>75% = ++++)

226 (VLNEYFHNV; listed as Homo sapiens) [compound 226]
Peptide exchange: ++++ (>75% = ++++)

227 (FLLEQEKTQAL; listed as Homo sapiens) [compound 227]
Peptide exchange: ++++ (>75% = ++++)

228 (FLNLFNHTL; listed as Homo sapiens) [compound 228]
Peptide exchange: ++++ (>75% = ++++)

229 (LLEPFVHQV; listed as Homo sapiens) [compound 229]
Peptide exchange: ++++ (>75% = ++++)

230 (HLDEARTLL; listed as Homo sapiens) [compound 230]
Peptide exchange: ++++ (>75% = ++++)

231 (KMVGDVTGA; listed as Homo sapiens) [compound 231]
Peptide exchange: +++ (>50 = +++)

233 (QLYNQIIKL; listed as Homo sapiens) [compound 233]
Peptide exchange: ++++ (>75% = ++++)

234 (KVPEIEVTV; listed as Homo sapiens) [compound 234]
Peptide exchange: ++++ (>75% = ++++)

235 (ALADLQEAV; listed as Homo sapiens) [compound 235]
Peptide exchange: ++++ (>75% = ++++)

236 (GLDSGFHSV; listed as Homo sapiens) [compound 236]
Peptide exchange: ++++ (>75% = ++++)

237 (VLYNESLQL; listed as Homo sapiens) [compound 237]
Peptide exchange: ++++ (>75% = ++++)
